This is an account of results in paper PMC4983110, “Shared and distinct functions of the pseudokinase CORYNE (CRN) in shoot and root stem cell maintenance of Arabidopsis” (Journal of Experimental Botany, 2016).

Holding throughout (test): FRET or BRET; FRET-APB (acceptor photobleaching) in transiently transformed Nicotiana benthamiana cells; GFP donor, mCherry acceptor bleached in a region along the plasma membrane; apparent FRET efficiency as donor-dequenching in %
The target of test [1] is CLAVATA2 (CLV2), wild type, tagged with mCherry (Arabidopsis thaliana) (UniProt O80809).
The target in test [2] is T1, CLAVATA2 (CLV2), wild type, tagged with mCherry (Arabidopsis thaliana, UniProt O80809 26-720).
T1 construct: CLAVATA2 (CLV2), Arabidopsis thaliana, LRR receptor-like protein, wild type, from cDNA; also called CLV2-mCherry; source: N. benthamiana, transiently expressed from an inducible vector, in living cells
T1 sequence (looked up): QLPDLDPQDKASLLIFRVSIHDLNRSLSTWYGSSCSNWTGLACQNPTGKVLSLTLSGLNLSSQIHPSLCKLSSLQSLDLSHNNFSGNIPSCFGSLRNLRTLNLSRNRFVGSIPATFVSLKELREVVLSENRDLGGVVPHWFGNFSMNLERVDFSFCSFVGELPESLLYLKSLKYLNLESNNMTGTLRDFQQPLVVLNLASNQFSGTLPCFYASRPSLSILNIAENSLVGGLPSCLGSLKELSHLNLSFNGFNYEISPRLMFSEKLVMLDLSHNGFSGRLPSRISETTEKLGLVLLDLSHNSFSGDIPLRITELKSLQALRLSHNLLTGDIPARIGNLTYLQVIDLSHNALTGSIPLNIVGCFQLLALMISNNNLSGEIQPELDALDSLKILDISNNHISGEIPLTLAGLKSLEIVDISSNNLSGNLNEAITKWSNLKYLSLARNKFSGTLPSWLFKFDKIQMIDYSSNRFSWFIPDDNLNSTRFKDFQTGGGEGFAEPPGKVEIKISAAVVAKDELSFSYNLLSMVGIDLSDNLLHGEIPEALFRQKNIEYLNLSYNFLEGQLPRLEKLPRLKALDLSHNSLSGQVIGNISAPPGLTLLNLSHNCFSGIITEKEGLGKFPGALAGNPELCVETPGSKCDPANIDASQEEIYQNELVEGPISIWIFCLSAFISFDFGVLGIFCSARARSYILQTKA
Particulars: partners not purified.

Test [3] concerns the target CLV2 with the entire RxR motif deleted, tagged with GFP (Arabidopsis thaliana) (UniProt O80809).
Test [4] has as its target CLV2 with the first conserved arginine of the RxR motif replaced with an alanine, tagged with GFP (Arabidopsis thaliana) (UniProt O80809).
Test [5] addresses chimeric protein of the CLV2 LRR-receptor and its TMD fused to the CRN kinase domain, tagged with GFP (Arabidopsis thaliana) (UniProt Q9LYU7).
In test [6] the target is T2, CLAVATA2 (CLV2), wild type, tagged with GFP (Arabidopsis thaliana, UniProt O80809 26-720).
T2 construct: CLAVATA2 (CLV2), Arabidopsis thaliana, LRR receptor-like protein, wild type, from cDNA; also called CLV2-GFP; source: N. benthamiana, transiently expressed from an inducible vector, in living cells
T2 sequence (looked up): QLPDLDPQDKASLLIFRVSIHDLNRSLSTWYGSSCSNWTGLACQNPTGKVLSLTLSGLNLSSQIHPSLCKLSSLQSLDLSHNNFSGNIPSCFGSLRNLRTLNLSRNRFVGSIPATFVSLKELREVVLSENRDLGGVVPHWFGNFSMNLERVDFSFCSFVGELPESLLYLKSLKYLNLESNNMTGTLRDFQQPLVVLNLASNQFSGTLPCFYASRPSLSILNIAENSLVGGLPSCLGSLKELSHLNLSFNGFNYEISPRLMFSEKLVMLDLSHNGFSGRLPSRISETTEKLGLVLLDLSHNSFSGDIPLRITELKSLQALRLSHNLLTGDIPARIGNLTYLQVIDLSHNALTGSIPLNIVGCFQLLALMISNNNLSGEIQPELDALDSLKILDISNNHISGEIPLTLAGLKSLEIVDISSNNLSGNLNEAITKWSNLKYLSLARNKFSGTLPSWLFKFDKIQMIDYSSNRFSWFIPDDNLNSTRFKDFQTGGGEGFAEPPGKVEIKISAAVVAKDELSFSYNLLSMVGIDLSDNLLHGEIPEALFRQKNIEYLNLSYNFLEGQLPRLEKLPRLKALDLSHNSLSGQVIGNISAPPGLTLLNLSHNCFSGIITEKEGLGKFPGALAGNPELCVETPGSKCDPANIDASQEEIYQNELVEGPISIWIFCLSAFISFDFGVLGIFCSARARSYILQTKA
Particulars: partners not purified.

In the case of “CRN lacking the N-terminal, distal part of the extracellular domain, tagged with GFP (from UniProt Q9LYU7 34-62) (natural protein)”, in test [1], the D-d (%) (donor-dequenching, apparent FRET efficiency) was 11.2%.
Same read-out and setting: the result for “CRN lacking the entire extracellular domain, tagged with GFP (from UniProt Q9LYU7 34-62) (natural protein)” reads 7.2%; that for “CRN lacking the proximal part of the extracellular domain adjacent to the TMD, tagged with GFP (from UniProt Q9LYU7 34-62) (natural protein)”, 10.5%.
The same measure, in the same setting: the result for “chimera of CRN in which the kinase is replaced with the kinase domain of CLV1, tagged with GFP (from UniProt Q9SYQ8 692-968)” reads 10.3%.
On the same count and under the same terms, the result for “shortened CRN protein lacking the kinase, tagged with GFP (domain or fragment)” reads 24.5%.

B1: crn-3 variant of CRN (translational stop at Q296, kinase domain shortened by one third), tagged with GFP (domain or fragment, Arabidopsis thaliana, UniProt Q9LYU7 34-295, looked up)
chain: TSCRRRTVKHLSTTSTSSTPLESRITSKVIVISIVSGILTGLVSALVLAFLVRSIVKFMKQTPILKGPVVFSPKITPKSLHAALSNGIQLLGSDLNGKYYKMVLDNGLVVAVKRLGSLEGVGSPESSSSKSVKRRLQKELELLAGLRHRNLMSLRAYVRESDEFSLVYDYMPNGSLEDVMNKVRTKEVELGWEIRLRVAVGIVKGLQYLHFSCETQILHYNLKPTNVMLDSEFEPRLADCGLAKIMPSSHTAVSCYSAPESS
notes: signal peptide in the construct; CRN, Arabidopsis thaliana, truncated by the point mutation at Q296 of the EMS-induced crn-3 allele, which causes a translational stop; also called crn-3-GFP; source: N. benthamiana, transiently expressed, in living cells
B1: the “D-d (%) (donor-dequenching, apparent FRET efficiency)” value in test [2] was determined as 18.3%.

B2: CORYNE (CRN), wild type, tagged with mCherry (natural protein, Arabidopsis thaliana, UniProt Q9LYU7 34-401, looked up)
chain: TSCRRRTVKHLSTTSTSSTPLESRITSKVIVISIVSGILTGLVSALVLAFLVRSIVKFMKQTPILKGPVVFSPKITPKSLHAALSNGIQLLGSDLNGKYYKMVLDNGLVVAVKRLGSLEGVGSPESSSSKSVKRRLQKELELLAGLRHRNLMSLRAYVRESDEFSLVYDYMPNGSLEDVMNKVRTKEVELGWEIRLRVAVGIVKGLQYLHFSCETQILHYNLKPTNVMLDSEFEPRLADCGLAKIMPSSHTAVSCYSAPESSQSNRYTDKSDIFSFGMILGVLLTGRDPTHPFCEESASGGSLGQWLKHLQQSGEAREALDKTILGEEVEEDEMLMALRITIICLSDFPADRPSSDELVHMLTQLHSF
notes: CORYNE (CRN), Arabidopsis thaliana, wild type, from cDNA; the longer splice variant, not gene model AT5G13290.1; also called CRN-mCherry; source: N. benthamiana, transiently expressed from an inducible vector, in living cells
On to B2, for which the D-d (%) (donor-dequenching, apparent FRET efficiency) in test [3] was 11.4%; in test [4], 14.2%; in test [5], 5.7%; in test [6], 11.7%.

B3: CORYNE (CRN), wild type, tagged with GFP (natural protein, Arabidopsis thaliana, UniProt Q9LYU7 34-401, looked up)
chain: TSCRRRTVKHLSTTSTSSTPLESRITSKVIVISIVSGILTGLVSALVLAFLVRSIVKFMKQTPILKGPVVFSPKITPKSLHAALSNGIQLLGSDLNGKYYKMVLDNGLVVAVKRLGSLEGVGSPESSSSKSVKRRLQKELELLAGLRHRNLMSLRAYVRESDEFSLVYDYMPNGSLEDVMNKVRTKEVELGWEIRLRVAVGIVKGLQYLHFSCETQILHYNLKPTNVMLDSEFEPRLADCGLAKIMPSSHTAVSCYSAPESSQSNRYTDKSDIFSFGMILGVLLTGRDPTHPFCEESASGGSLGQWLKHLQQSGEAREALDKTILGEEVEEDEMLMALRITIICLSDFPADRPSSDELVHMLTQLHSF
notes: CORYNE (CRN), Arabidopsis thaliana, wild type, from cDNA; Residue numbers (G70, S156, Q296) count on the longer splice variant, not on gene model AT5G13290.1, on which S156 is S131; also called CRN-GFP; source: N. benthamiana, transiently expressed from an inducible vector, in living cells
Take B3: the “D-d (%) (donor-dequenching, apparent FRET efficiency)” value in test [2] stood at 10.5%.

B4: CRN with S156A (phosphomute variant), tagged with GFP (natural protein, Arabidopsis thaliana, UniProt Q9LYU7 34-401, looked up)
chain: TSCRRRTVKHLSTTSTSSTPLESRITSKVIVISIVSGILTGLVSALVLAFLVRSIVKFMKQTPILKGPVVFSPKITPKSLHAALSNGIQLLGSDLNGKYYKMVLDNGLVVAVKRLGSLEGVGAPESSSSKSVKRRLQKELELLAGLRHRNLMSLRAYVRESDEFSLVYDYMPNGSLEDVMNKVRTKEVELGWEIRLRVAVGIVKGLQYLHFSCETQILHYNLKPTNVMLDSEFEPRLADCGLAKIMPSSHTAVSCYSAPESSQSNRYTDKSDIFSFGMILGVLLTGRDPTHPFCEESASGGSLGQWLKHLQQSGEAREALDKTILGEEVEEDEMLMALRITIICLSDFPADRPSSDELVHMLTQLHSF
notes: CRN, Arabidopsis thaliana, serine 156 replaced with alanine; S156 is S131 on gene model AT5G13290.1 (the shorter splice variant); also called CR(SA)-GFP; CR(SA); source: N. benthamiana, transiently expressed, in living cells
Take B4: the “D-d (%) (donor-dequenching, apparent FRET efficiency)” value in test [2] was 13.5%.

B5: CRN with S156D (putative phosphomimetic variant), tagged with GFP (natural protein, Arabidopsis thaliana, UniProt Q9LYU7 34-401, looked up)
chain: TSCRRRTVKHLSTTSTSSTPLESRITSKVIVISIVSGILTGLVSALVLAFLVRSIVKFMKQTPILKGPVVFSPKITPKSLHAALSNGIQLLGSDLNGKYYKMVLDNGLVVAVKRLGSLEGVGDPESSSSKSVKRRLQKELELLAGLRHRNLMSLRAYVRESDEFSLVYDYMPNGSLEDVMNKVRTKEVELGWEIRLRVAVGIVKGLQYLHFSCETQILHYNLKPTNVMLDSEFEPRLADCGLAKIMPSSHTAVSCYSAPESSQSNRYTDKSDIFSFGMILGVLLTGRDPTHPFCEESASGGSLGQWLKHLQQSGEAREALDKTILGEEVEEDEMLMALRITIICLSDFPADRPSSDELVHMLTQLHSF
notes: CRN, Arabidopsis thaliana, serine 156 replaced with aspartic acid; S156 is S131 on gene model AT5G13290.1 (the shorter splice variant); also called CR(SD)-GFP; CR(SD); source: N. benthamiana, transiently expressed, in living cells
B5: the “D-d (%) (donor-dequenching, apparent FRET efficiency)” value in test [2] was 12.2%.

B6: crn-1 variant of CRN (G70E in the predicted TMD), tagged with GFP (natural protein, Arabidopsis thaliana, UniProt Q9LYU7 34-401, looked up)
chain: TSCRRRTVKHLSTTSTSSTPLESRITSKVIVISIVSEILTGLVSALVLAFLVRSIVKFMKQTPILKGPVVFSPKITPKSLHAALSNGIQLLGSDLNGKYYKMVLDNGLVVAVKRLGSLEGVGSPESSSSKSVKRRLQKELELLAGLRHRNLMSLRAYVRESDEFSLVYDYMPNGSLEDVMNKVRTKEVELGWEIRLRVAVGIVKGLQYLHFSCETQILHYNLKPTNVMLDSEFEPRLADCGLAKIMPSSHTAVSCYSAPESSQSNRYTDKSDIFSFGMILGVLLTGRDPTHPFCEESASGGSLGQWLKHLQQSGEAREALDKTILGEEVEEDEMLMALRITIICLSDFPADRPSSDELVHMLTQLHSF
notes: CRN, Arabidopsis thaliana, with the amino acid exchange G70E of the EMS-induced crn-1 allele in the predicted TMD; also called crn-1-GFP; source: N. benthamiana, transiently expressed, in living cells
Consider B6, for which, in test [2], the “D-d (%) (donor-dequenching, apparent FRET efficiency)” value stood at 5.2%.
